B3: ROCK-I^1−406 (kinase and N-terminal dimerisation domains), His tag cleaved (domain or fragment, UniProt Q13464 1-406, looked up)
chain: MSTGDSFETRFEKMDNLLRDPKSEVNSDCLLDGLDALVYDLDFPALRKNKNIDNFLSRYKDTINKIRDLRMKAEDYEVVKVIGRGAFGEVQLVRHKSTRKVYAMKLLSKFEMIKRSDSAFFWEERDIMAFANSPWVVQLFYAFQDDRYLYMVMEYMPGGDLVNLMSNYDVPEKWARFYTAEVVLALDAIHSMGFIHRDVKPDNMLLDKSGHLKLADFGTCMKMNKEGMVRCDTAVGTPDYISPEVLKSQGGDGYYGRECDWWSVGVFLYEMLVGDTPFYADSLVGTYSKIMNHKNSLTFPDDNDISKEAKNLICAFLTDREVRLGRNGVEEIKRHLFFKNDQWAWETLRDTVAPVVPDLSSDIDTSNFDDLEEDKGEEETFPIPKAFVGNQLPFVGFTYYSNRRYL

Columns and labels:
[1] = target: His6-ROCK-I^1−406 (purified without cleavage of the His6 tag) (UniProt Q13464 1-406); test: pull-down
[2] = target: B3; test: crystal structure
crystal structure = target: the molecule itself; test: crystal structure

B1: GST–RhoE^WT (natural protein, UniProt P61587 1-244, looked up)
chain: MKERRASQKLSSKSIMDPNQNVKCKIVVVGDSQCGKTALLHVFAKDCFPENYVPTVFENYTASFEIDTQRIELSLWDTSGSPYYDNVRPLSYPDSDAVLICFDISRPETLDSVLKKWKGEIQEFCPNTKMLLVGCKSDLRTDVSTLVELSNHRQTPVSYDQGANMAKQIGAATYIECSALQSENSVRDIFHVATLACVNKTNKNVKRNKSQRATKRISHMPSRPELSAVATDLRKDKAKSCTVM
binding result [1]: binds

B2: RhoE^1−200 (RhoE-GTP/Mg2+, residues 1–200) (domain or fragment, UniProt P61587 1-200, looked up)
chain: MKERRASQKLSSKSIMDPNQNVKCKIVVVGDSQCGKTALLHVFAKDCFPENYVPTVFENYTASFEIDTQRIELSLWDTSGSPYYDNVRPLSYPDSDAVLICFDISRPETLDSVLKKWKGEIQEFCPNTKMLLVGCKSDLRTDVSTLVELSNHRQTPVSYDQGANMAKQIGAATYIECSALQSENSVRDIFHVATLACVNK
binding result [2]: binds

B3
stoichiometry N (crystal structure): 2
